The values below are quoted from earlier work in paper PMC2981439.

This series deals with quinone MADH (Paracoccus denitrificans) (UniProt P22619).
UniProt P22619, sequence (P22619 58-188, chain 1 of 2): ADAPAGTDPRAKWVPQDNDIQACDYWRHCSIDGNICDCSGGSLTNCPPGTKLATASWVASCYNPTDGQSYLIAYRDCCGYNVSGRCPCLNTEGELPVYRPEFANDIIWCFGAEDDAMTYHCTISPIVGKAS
UniProt P22619, sequence (P29894 29-417, chain 2 of 2, further chain): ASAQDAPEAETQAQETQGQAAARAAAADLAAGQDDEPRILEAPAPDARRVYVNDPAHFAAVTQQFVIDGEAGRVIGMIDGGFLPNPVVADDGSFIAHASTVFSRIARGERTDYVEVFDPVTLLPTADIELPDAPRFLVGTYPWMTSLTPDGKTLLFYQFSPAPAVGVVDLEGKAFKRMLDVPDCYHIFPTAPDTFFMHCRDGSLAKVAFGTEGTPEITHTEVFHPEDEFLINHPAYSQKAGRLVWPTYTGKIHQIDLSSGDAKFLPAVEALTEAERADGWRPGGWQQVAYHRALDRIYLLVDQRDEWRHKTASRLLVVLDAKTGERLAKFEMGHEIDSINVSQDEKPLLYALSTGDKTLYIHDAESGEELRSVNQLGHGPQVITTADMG

On to MauG (from UniProt Q51658), for which the Kd (usually the equilibrium constant for the complex coming apart) was 10.1 µM.
